# In article PMC7062800:
# Tests used:
# [1] = system: RdhK1 (CprK4) (Desulfitobacterium hafniense DCB-2); experiment: EMSA; conditions: no effector; EMSA: 100 ng DNA, 2 uM protein, 200 uM effector, 15 uL; buffer 100 mM Tris-HCl pH 8.5, 40% glycerol, 10 mM MgCl2, 500 mM NaCl, 5 mM EDTA, 10 mM DTT …
# [2] = target: RdhK6 (CprK1) (Desulfitobacterium hafniense DCB-2) (UniProt Q18R04); experiment: EMSA; conditions: 200 uM Cl-OHPA; EMSA: 100 ng DNA, 2 uM protein, 200 uM effector, 15 uL; buffer 100 mM Tris-HCl pH 8.5, 40% glycerol, 10 mM MgCl2, 500 mM NaCl, 5 mM EDTA, 10 mM DTT …
Sequence,binding signal [1],binding signal [2]
GAATTCTCAGGCGATGTAACCGCTTTCAAAGTTAATACACATTAATACTCTTAACAATGTGATAGCTATGATTGCACCG (double strand) [mgl-DB7],10 % DNA bound,100 % DNA bound
GAATTCTCAGGCGATGTAACCGCTTTCAAATTTAGTATACGCTAAATATCTTAACAATGTGATAGCTATGATTGCACCG (double strand) [mgl-DB8],80 % DNA bound,100 % DNA bound
